The target of assay [1] is MART-1 peptide on HLA-A*02:01 (human). Briefly: SPR, Biacore 3000, TCR amine-coupled to a CM5 chip, refolded pMHC injected up to 100 micromolar, 25 C, 1:1 Langmuir model (Fig. 2); soluble, other. (Surface plasmon resonance follows binding to a sensor surface in real time, without labels.)
Assay [2] has the same target. Briefly: SPR, Biacore 3000, TCR amine-coupled to a CM5 chip, refolded pMHC injected, 25 C, 1:1 Langmuir model; Table 2 draws on Fig. 2 and published work (PMID: 24550723); soluble, other.
The target is the same in assay [3]. Briefly: SPR, Biacore 3000, TCR amine-coupled to a CM5 chip, refolded pMHC injected up to 100 micromolar, 1:1 Langmuir model (Fig. 4); weaker than αD26Y/βL98W (0.024) and wild-type DMF5 (9.5); soluble, other.
For assay [4] the target is unchanged. Briefly: SPR, Biacore 3000, TCR amine-coupled to a CM5 chip, refolded pMHC injected up to 100 micromolar, 1:1 Langmuir model (Fig. 4); soluble, other.
Assay [5] has the same target. Briefly: SPR, Biacore 3000, TCR amine-coupled to a CM5 chip, refolded pMHC injected, 25 C; the same value stands in Table 2 r6, where the peptide is printed as AAG; soluble, other.

The term Kd denotes the equilibrium constant for the complex coming apart. Lower therefore signals a tighter complex. Turning to DMF5 TCR αD26Y, the Kd in assay [1] is 4500 nM; in assay [2], 460 nM.
With DMF5 TCR αD26Y/αY50A/βL98W, the Kd in assay [3] stood at 556000 nM.
Substance DMF5 TCR αD26Y/αY50F/βL98W registered a Kd in assay [4] of 640 nM.
Take DMF5 TCR αD26Y/αY50V/βL98W: the Kd in assay [4] is 7140 nM.
Same read-out and setting: for DMF5 TCR αD26Y/αY50W/βL98W the value was 660 nM.
In assay [5], DMF5 TCR αD26Y/βL98W yielded a Kd of 24 nM.
Turning to DMF5 TCR βL98W, the Kd in assay [2] is 2900 nM.

The values above are taken from patent EP3172325B1.
